# Experimental data reported in patent US20170298395A1, “AUTOTROPHIC HYDROGEN BACTERIA AND USES THEREOF” (Ohio State Innovation Foundation, priority 2011, published 2017).
# Substitutions are numbered along the chain they refer to. Names may count otherwise.
# B1: E87K/G242S (protein)
# chain: MSSFLRALTLRQLQIFVTVARHASFVRAAEELHLTQPAVSMQVKQLESVVGMALFERVKGQLTLTEPGDRLLHHASRILGEVKDAEKGLQAVKDVEQGSITIGLISTSKYFAPKLLAGFTALHPGVDLRIAEGNRETLLRLLQDNAIDLALMGRPPRELDAVSEPIAAHPHVLVASPRHPLHDAKGFDLQELRHETFLLREPGSGTRTVAEYMFRDHLFTPAKVITLGSNETIKQAVMAGMSISLLSLHTLGLELRTGEIGLLDVAGTPIERIWHVAHMSSKRLSPASESCRAYLLEHTAEFLGREYGGLMPGRRVA
# B2: G205D (protein)
# chain: B1 chain with K87E, G205D, S242G
# B3: L79F (protein)
# chain: B1 chain with L79F, K87E, S242G
# B4: wt CbbR: wild-type CbbR (R. eutropha), 317 amino acids, SEQ ID NO: 1 (protein)
# chain: B1 chain with K87E, S242G
# B5: R272Q (protein)
# chain: B1 chain with K87E, S242G, R272Q
# B6: G98R (protein)
# chain: B1 chain with K87E, G98R, S242G
# B7: A167V (protein)
# chain: B1 chain with K87E, A167V, S242G
# B8: A117V (protein)
# chain: B1 chain with K87E, A117V, S242G
# B9: D148N (protein)
# chain: B1 chain with K87E, D148N, S242G
# B10: T232A (protein)
# chain: B1 chain with K87E, T232A, S242G
# B11: T232I (protein)
# chain: B1 chain with K87E, T232I, S242G
# B12: G125S/V265M (protein)
# chain: B1 chain with K87E, G125S, S242G, V265M
# B13: P269S/T299I (protein)
# chain: B1 chain with K87E, S242G, P269S, T299I
# B14: G125D (protein)
# chain: B1 chain with K87E, G125D, S242G
# B15: P221S/T299I (protein)
# chain: B1 chain with K87E, P221S, S242G, T299I
# B16: E87K (protein)
# chain: B1 chain with S242G
# B17: G205D/R283H (protein)
# chain: B1 chain with K87E, G205D, S242G, R283H
# B18: G205D/G118D (protein)
# chain: B1 chain with K87E, G118D, G205D, S242G
# System: Ralstonia eutropha cbbR deletion reporter strain
# Type: cell-based
# Conditions: chemoautotrophic, CO2/H2/O2 atmosphere, minimal media
row,Molecule,Doubling Time [h]
1,B1,6.0
2,B2,7.8
3,B3,5.6

# System: cbb promoter
# Type: binding, R. eutropha
# Conditions: in the presence of ATP
row,Molecule,"effect of ATP on CbbR binding to cbb promoter probe (phosphorimage, in words)"
1,B4,enhancement of binding
2,B5,modest enhancement of binding
3,B6,no enhancement of binding

# Same assay, conditions: in the presence of FBP
row,Molecule,"effect of FBP on CbbR binding to cbb promoter probe (phosphorimage, in words)"
1,B4,no enhancement of binding

# Same assay, conditions: in the presence of NADPH
row,Molecule,"effect of NADPH on CbbR binding to cbb promoter probe (phosphorimage, in words)"
1,B4,modest enhancement of binding

# Same assay, conditions: in the presence of Ru5P
row,Molecule,"effect of Ru5P on CbbR binding to cbb promoter probe (phosphorimage, in words)"
1,B4,no enhancement of binding

# Same assay, conditions: in the presence of RuBP
row,Molecule,"effect of RuBP on CbbR binding to cbb promoter probe (phosphorimage, in words)"
1,B4,enhancement of binding
2,B5,reduction of binding
3,B6,modest enhancement of binding

# System: cbbL transcript
# Type: cell-based, Ralstonia eutropha
# Conditions: chemoautotrophic growth, 26 cycles of PCR
row,Molecule,"increase in transcription over wild type CbbR (RT-PCR, FIG. 22) [fold]"
1,B7,4.1

# Same assay, conditions: chemoautotrophic growth, OD 0.2
row,Molecule,"increase in cbb transcript over wild type CbbR (RT-PCR, FIG. 21) [fold]"
1,B8,1.9
2,B7,3.3

# System: cbb promoter
# Type: cell-based, Ralstonia eutropha
# Conditions: Table 9, chemoautotrophic growth conditions
row,Molecule,Chemoautotrophic β-galactosidase activity
1,B4,3265 nmol/min/mg of protein
2,B9,5909 nmol/min/mg of protein
3,B1,4312 nmol/min/mg of protein
4,B2,2634 nmol/min/mg of protein
5,B10,4626 nmol/min/mg of protein
6,B8,6793 nmol/min/mg of protein
7,B11,5005 nmol/min/mg of protein
8,B3,6840 nmol/min/mg of protein
9,B7,7373 nmol/min/mg of protein
10,B12,6770 nmol/min/mg of protein
11,B13,3697 nmol/min/mg of protein
12,B14,6777 nmol/min/mg of protein
13,B15,4672 nmol/min/mg of protein

# Same assay, conditions: Table 12, chemoautotrophic (induced) growth
row,Molecule,Chemoautotrophic β-galactosidase activity
1,B4,3265 nmol/min/mg of protein
2,B9,6442 nmol/min/mg of protein
3,B16,5515 nmol/min/mg of protein
4,B1,4820 nmol/min/mg of protein
5,B2,2241 nmol/min/mg of protein
6,B10,5269 nmol/min/mg of protein
7,B8,6793 nmol/min/mg of protein
8,B11,5005 nmol/min/mg of protein
9,B3,6840 nmol/min/mg of protein
10,B7,7373 nmol/min/mg of protein
11,B17,4480 nmol/min/mg of protein
12,B18,3939 nmol/min/mg of protein
13,B12,6770 nmol/min/mg of protein
14,B13,3879 nmol/min/mg of protein
15,B14,6777 nmol/min/mg of protein
16,B15,5312 nmol/min/mg of protein

# Same assay, conditions: Table 12, chemoheterotrophic (repressed) growth
row,Molecule,Chemoheterotrophic β-galactosidase activity
1,B4,3 nmol/min/mg of protein
2,B9,343 nmol/min/mg of protein
3,B16,1597 nmol/min/mg of protein
4,B1,303 nmol/min/mg of protein
5,B2,488 nmol/min/mg of protein
6,B10,212 nmol/min/mg of protein
7,B8,254 nmol/min/mg of protein
8,B11,303 nmol/min/mg of protein
9,B3,218 nmol/min/mg of protein
10,B7,768 nmol/min/mg of protein
11,B17,2311 nmol/min/mg of protein
12,B18,1168 nmol/min/mg of protein
13,B12,53 nmol/min/mg of protein
14,B13,617 nmol/min/mg of protein
15,B14,108 nmol/min/mg of protein
16,B15,655 nmol/min/mg of protein

# System: RubisCO
# Type: cell-based, Ralstonia eutropha
# Conditions: CA growth conditions
row,Molecule,level of RubisCO relative to wild-type CbbR [fold]
1,B8,2.2
2,B7,~2.7

# Same assay, conditions: CH growth conditions
row,Molecule,level of RubisCO relative to wild-type CbbR [fold]
1,B16,330
2,B17,530

# Same assay, conditions: Table 9, chemoautotrophic growth conditions
row,Molecule,Chemoautotrophic RubisCO activity
1,B4,90 nmol/min/mg of protein
2,B9,185 nmol/min/mg of protein
3,B1,128 nmol/min/mg of protein
4,B2,133 nmol/min/mg of protein
5,B10,78 nmol/min/mg of protein
6,B8,171 nmol/min/mg of protein
7,B11,106 nmol/min/mg of protein
8,B3,209 nmol/min/mg of protein
9,B7,173 nmol/min/mg of protein
10,B12,162 nmol/min/mg of protein
11,B13,118 nmol/min/mg of protein
12,B14,162 nmol/min/mg of protein
13,B15,206 nmol/min/mg of protein

# Same assay, conditions: Table 12, chemoautotrophic (induced) growth
row,Molecule,Chemoautotrophic RubisCO activity
1,B4,139 nmol/min/mg of protein
2,B9,242 nmol/min/mg of protein
3,B16,305 nmol/min/mg of protein
4,B1,198 nmol/min/mg of protein
5,B2,54 nmol/min/mg of protein
6,B10,140 nmol/min/mg of protein
7,B8,314 nmol/min/mg of protein
8,B11,123 nmol/min/mg of protein
9,B3,304 nmol/min/mg of protein
10,B7,370 nmol/min/mg of protein
11,B17,115 nmol/min/mg of protein
12,B18,148 nmol/min/mg of protein
13,B12,259 nmol/min/mg of protein
14,B13,158 nmol/min/mg of protein
15,B14,298 nmol/min/mg of protein
16,B15,212 nmol/min/mg of protein

# Same assay, conditions: Table 12, chemoheterotrophic (repressed) growth
row,Molecule,Chemoheterotrophic RubisCO activity
1,B4,0.1 nmol/min/mg of protein
2,B9,8 nmol/min/mg of protein
3,B16,33 nmol/min/mg of protein
4,B1,6 nmol/min/mg of protein
5,B2,10 nmol/min/mg of protein
6,B10,4 nmol/min/mg of protein
7,B8,6 nmol/min/mg of protein
8,B11,5 nmol/min/mg of protein
9,B3,4 nmol/min/mg of protein
10,B7,15 nmol/min/mg of protein
11,B17,53 nmol/min/mg of protein
12,B18,30 nmol/min/mg of protein
13,B12,2 nmol/min/mg of protein
14,B13,14 nmol/min/mg of protein
15,B14,3 nmol/min/mg of protein
16,B15,16 nmol/min/mg of protein
